This passage reports optical density results from patent US20210380703A1 (RIGEL PHARMACEUTICALS, published 2021).

Numbering of substitutions follows the chain as printed.

Sequences and labels used below:
B1: 375_D02 (antibody, V domains shown)
VH: EVQLLESGGGLVQPGGSLRLSCAASGFTFSSYSMNWVRQAPGKGLEWVSNINYNGGYTSYADSVKGRFTISRDNSKNTLYLQMNSLRAEDTAVYYCARAATWHDTHLDYWGQGTLVTVSS
VL: DIQMTQSPSSLSASVGDRVTITCRASQSILTYLNWYQQKPGKAPKLLIYAASSLQSGVPSRFSGSGSGTDFTLTISSLQPEDFATYYCQQSYELPLTFGGGTKVEIK
notes: Group II
B2: 375_A11 (antibody, V domains shown)
VH: B1 VH with S31D, S33G, N35H, N50S, G55S, T58K, T101N, H106A
VL: B1 VL with L30V, T31S, A50Y, A51V, S52T, S53N, Q55A, E93D, L94N
notes: Group I
B3: 371_D07 (antibody, V domains shown)
VH: B1 VH with S30D, S31D, S33G, S49A, T58K, S59G, T101N
VL: B1 VL with L47V, S52T, L54R, Q55A
notes: Group I
B4: 376_D08 (antibody, V domains shown)
VH: B1 VH with S30D, S33G, S49A, G55S, T58K, H106A
VL: B1 VL with L47V, A50Y, S52N, S53N, L54R, Q55P, E93S, L94N
notes: Group II
B5: 375_A04 (antibody, V domains shown)
VH: B1 VH with S30D, S33G, S49A, N50G, T58K, T101N, H106A
VL: B1 VL with L47V, A50Y, A51V, S52N, S53N, Q55P, E93N, L94S
notes: Group I
B6: 365_E10 (antibody, V domains shown)
VH: B1 VH with S30D, N50S, G55S, T58K, S59G, A99G, T101N
VL: not shown
notes: Group III
B7: 365_B10 (antibody, V domains shown)
VH: B1 VH with S30D, S31D, N35H, S49A, N50S, G55S, T58K, S59G, T101N, H106A
VL: B1 VL with T31R, S52T, L54R, Q55A, Y92D, E93N
notes: Group I
B8: 366_A08 (antibody, V domains shown)
VH: B1 VH with S30D, S31D, N50G, G55S, T58K, S59G, A99G, T101N
VL: B1 VL with L30V, T31S, L33V, L47V, S52T, L54R, Q55A, E93N, L94S
notes: Group III
B9: 366_A06 (antibody, V domains shown)
VH: B1 VH with S31D, S49A, N50S, T58K, A99G, T101N
VL: not shown
notes: Group III
B10: 366_B05 (antibody, V domains shown)
VH: B1 VH with S31D, N50G, G55S, T58K, A99G, T101N, H106A
VL: B1 VL with L30S, T31S, L47V, A51V, S52T, L54R, Q55A
notes: Group III
B11: 376_H12 (antibody, V domains shown)
VH: B1 VH with S31D, S33G, N35H, S49A, N50S
VL: B1 VL with L30I, L47V, S52T, L54R, Q55A, L94S
notes: Group II
B12: 375_H04 (antibody, V domains shown)
VH: B1 VH with S33G, N35H, S49A, N50G, G55S, S59G
VL: B1 VL with T31S, L47V, S52T, L54R, Q55A, E93S, L94N
notes: Group II
B13: 375_H01 (antibody, V domains shown)
VH: B1 VH with S31D, S49A, N50G, G55S, T101N
VL: B1 VL with S52T, L54R, Q55H, E93S, L94N
notes: Group I
B14: 376_G02 (antibody, V domains shown)
VH: B1 VH with S31D, S33G, N50G, T101N, H106A
VL: B1 VL with L30S, T31R, L47V, S52T, Q55A, E93D, L94N
notes: Group I
B15: 375_G08 (antibody, V domains shown)
VH: B1 VH with S33G, N35H, N50G
VL: B1 VL with L30S, T31S, L33V, A51V, S52T, L54R, Q55A, E93S, L94T
notes: Group II
B16: 376_F09 (antibody, V domains shown)
VH: B1 VH with S30D, N35H, N50S, T58K
VL: B1 VL with L33V, A51V, S52T, L54R, Q55A, E93D, L94T
notes: Group II
B17: 375_F12 (antibody, V domains shown)
VH: B1 VH with S30D, S33G, N35H, S49A, N50S, T101N, H106A
VL: B1 VL with L47V, S52T, L54R, Q55A, Y92D
notes: Group I
B18: 370_A03 (antibody, V domains shown)
VH: B1 VH with A99S, T101N, H106A
VL: B1 VL with T31S, S52T, L54R, Q55A, E93D, L94S
B19: 367_C01 (antibody, V domains shown)
VH: B1 VH with S30D, S31D, N50G, T58K, A99S, T101N
VL: B1 VL with L47V, A51T, S52T, Q55H, E93D, L94T
B20: 367_C11 (antibody, V domains shown)
VH: B1 VH with S30D, N50S, G55S, S59G, A99S, T101N
VL: B1 VL with T31S, L47V, S52T, L54R, Q55H, E93N, L94T
B21: 367_E04 (antibody, V domains shown)
VH: B1 VH with S31D, N50S, T58K, S59G, A99S, T101N
VL: B1 VL with T31S, S52T, L54R, Q55A, L94S
B22: 367_E11 (antibody, V domains shown)
VH: B1 VH with S30D, S33G, N50S, G55S, T58K, S59G, A99S, T101N
VL: B1 VL with L30V, T31S, L33V, L47V, S52T, L54R, Q55H, E93D, L94T
B23: 367_F11 (antibody, V domains shown)
VH: B1 VH with S49A, N50G, G55S, S59G, A99S, T101N
VL: not shown
B24: 367_D10 (antibody, V domains shown)
VH: B1 VH with S30D, S33G, A99S, T101N, H106A
VL: B1 VL with L30I, T31S, L47V, S52T, L54R, Q55A, E93D, L94T
B25: 367_E06 (antibody, V domains shown)
VH: B1 VH with S30D, N50S, G55S, T58K, S59G, A99S, T101N
VL: not shown
B26: 367_F07 (antibody, V domains shown)
VH: B1 VH with S30D, S33G, N35H, S49A, S59G, A99S, T101N, H106A
VL: B1 VL with L30I, T31S, L33V, S52T, L54R, Q55A, L94T
B27: 367_F03 (antibody, V domains shown)
VH: B1 VH with S49A, N50G, G55S, T58K, A99S, T101N, H106A
VL: B1 VL with T31S, L33V, L47V, S52T, Q55A, Y92D, E93D, L94T
B28: 367_E09 (antibody, V domains shown)
VH: B1 VH with S31D, S33G, S49A, N50S, G55S, T58K, S59G, A99S, T101N, H106A
VL: B1 VL with T31S, L47V, A51T, S52T, L54R, Q55A, L94T
B29: 367_E01 (antibody, V domains shown)
VH: B1 VH with S33G, S49A, N50G, T58K, A99S, T101N, H106A
VL: B1 VL with T31S, L33V, A51T, S52T, L54R, Q55A, E93D
B30: 367_C05 (antibody, V domains shown)
VH: B1 VH with S30D, S31D, S33G, N50S, S59G, A99S, T101N
VL: B1 VL with T31S, L33V, L47V, S52T, L54R, Q55H, E93D
Note: test concentration or dose not given here.

Chain of Mouse ACVR2A (P27038 20-135 limits assumed): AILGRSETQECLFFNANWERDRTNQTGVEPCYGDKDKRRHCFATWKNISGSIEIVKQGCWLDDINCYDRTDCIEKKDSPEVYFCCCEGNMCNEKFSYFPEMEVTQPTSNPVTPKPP
Chain of mouse ACVR2A (P27038 20-135 limits assumed): as above

The target of the first assay is T1, human ACVR2A (human, UniProt P27037 20-135, limits assumed).
T1 construct: also called activin receptor, type II A
T1 sequence (P27037 20-135 limits assumed): as the sequence (P27038 20-135 limits assumed) above, with R20K, I73V counted along it
Nature of the assay: ELISA. In short, it runs like this:
(§1)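 mAb binding by ELISA; antigens: hu ACVR2A, mu ACVR2A; pos ctrl biotinylated goat anti-hu kappa LC; neg ctrl hu Fc.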
For orientation: ELISA stands for enzyme-linked immunosorbent assay.
The molecule B1 returned an optical density of 3.63 OD.
B2 returned an optical density of 3.73 OD.
On the same count and under the same terms, the value for B3 was 2.66 OD; that for B4 was 3.81 OD; that for B5 was 3.72 OD.
The same measure, in the same setting: the value for B6 was 1.82 OD.
Turning to B7, the optical density is 2.82 OD.
The same measure, in the same setting: the value for B8 was 1.65 OD.
The same measure, in the same setting: the value for B9 was 1.97 OD.
In turn, B10 had an optical density of 2.38 OD.
Still for that read-out and setting: the value for B11 was 3.23 OD; that for B12 was 3.11 OD.
Same read-out and setting: the value for B13 was 2.79 OD; that for B14 was 3.69 OD.
On to B15, for which the optical density was 3.33 OD.
For B16, the optical density turned out to be 3.5 OD.
Same read-out and setting: the value for B17 was 2.95 OD.

The target in a further assay is Mouse ACVR2A (mouse, UniProt P27038 20-135, limits assumed). Nature of the assay: ELISA. In short, it runs like this:
as §1
Turning to B18, the optical density is 3.63 OD.
B19 had an optical density of 2.99 OD.
The same measure, in the same setting: the value for B20 was 2.54 OD; that for B21 was 2.57 OD.
On the same count and under the same terms, the value for B22 was 2.91 OD; that for B23 was 1.87 OD; that for B24 was 2.67 OD.
On the same count and under the same terms, the value for B25 was 2.31 OD; that for B26 was 2.25 OD; that for B27 was 2.39 OD.
B28 registered an optical density of 1.81 OD.
In turn, B29 came in with an optical density of 2.52 OD.
The same measure, in the same setting: the value for B30 was 2.86 OD.

The target in the next assay is T2, Human ACVR2A (human, UniProt P27037 20-135, limits assumed).
T2 construct: also called activin receptor, type II A
T2 sequence (P27037 20-135 limits assumed): as the sequence (P27038 20-135 limits assumed) above, with R20K, I73V counted along it
The assay can be described thus: ELISA. The method, boiled down:
as §1
As to B18, the optical density was found to be 3.54 OD.
Molecule B19 displayed an optical density of 2.62 OD.
Turning to B20, the optical density is 2.33 OD.
The molecule B21 returned an optical density of 2.41 OD.
As to B22, the optical density is 2.4 OD.
Regarding B23, the optical density was 1.71 OD.
Same read-out and setting: the value for B24 was 2.7 OD; that for B25 was 2.02 OD; that for B26 was 2.13 OD.
The same measure, in the same setting: the value for B27 was 2.1 OD; that for B28 was 1.66 OD; that for B29 was 2.55 OD.
Molecule B30 came in with an optical density of 2.21 OD.

The target of the next assay is mouse ACVR2A (mouse, UniProt P27038 20-135, limits assumed). Nature of the assay: ELISA. The method, boiled down:
as §1
B1 returned an optical density of 3.56 OD.
Still for that read-out and setting: the value for B2 was 3.7 OD; that for B3 was 2.9 OD; that for B4 was 3.71 OD.
The same measure, in the same setting: the value for B5 was 3.73 OD.
The same measure, in the same setting: the value for B6 was 2.05 OD.
Regarding B7, the optical density came to 2.78 OD.
On to B8, for which the optical density worked out at 1.73 OD.
The same measure, in the same setting: the value for B9 was 2.25 OD.
On the same count and under the same terms, the value for B10 was 2.46 OD.
The same measure, in the same setting: the value for B11 was 3.08 OD.
Consider B12, for which the optical density stood at 3.16 OD.
In the case of B13, the optical density was 3.06 OD.
On the same count and under the same terms, the value for B14 was 3.7 OD.
Same read-out and setting: the value for B15 was 3.43 OD.
In turn, B16 displayed an optical density of 3.59 OD.
In turn, B17 yielded an optical density of 3.14 OD.

For the next assay, the target named is T3, Goat anti-Human Kappa.
T3 construct: Positive control of the ELISA; also called biotinylated goat anti-human kappa light chain
The assay can be described thus: ELISA, positive control. In short, it runs like this:
as §1
With B18, the optical density was determined as 3.56 OD.
On the same count and under the same terms, the value for B19 was 3.71 OD; that for B20 was 3.45 OD.
Molecule B21 showed an optical density of 3.5 OD.
The molecule B22 registered an optical density of 3.61 OD.
For the molecule B23, the optical density is 3.48 OD.
Take B24: the optical density stood at 3.38 OD.
Still for that read-out and setting: the value for B25 was 3.48 OD; that for B26 was 3.26 OD; that for B27 was 3.45 OD.
With B28, the optical density was 3.33 OD.
B29 yielded an optical density of 3.61 OD.
For the molecule B30, the optical density was determined as 3.42 OD.

Another assay addresses T4, biotinylated goat anti-human kappa light chain.
T4 construct: positive control of the ELISA
Nature of the assay: ELISA, positive control. In short, it runs like this: as §1
For the molecule B1, the optical density came out at 3.2 OD.
Still for that read-out and setting: the value for B2 was 3.05 OD; that for B3 was 3.59 OD.
Still for that read-out and setting: the value for B4 was 3.47 OD; that for B5 was 3.1 OD.
In turn, B6 showed an optical density of 3.34 OD.
Same read-out and setting: the value for B7 was 3.21 OD; that for B8 was 3.23 OD; that for B9 was 3.24 OD.
The molecule B10 came in with an optical density of 2.96 OD.
Still for that read-out and setting: the value for B11 was 3.49 OD; that for B12 was 3.15 OD; that for B13 was 3.1 OD.
The same measure, in the same setting: the value for B14 was 3.55 OD; that for B15 was 3.27 OD; that for B16 was 3.35 OD.
The molecule B17 returned an optical density of 3.17 OD.
